Assay results from publication PMC2925307.

Molecular target: β subunit of Roseobacter denitrificans propionyl-coenzyme A carboxylase (Roseobacter denitrificans)
Assay: crystal structure

stoichiometry N: 6
Substance: β subunit of Roseobacter denitrificans propionyl-coenzyme A carboxylase
